From article PMC4896748, “Ensemble cryo-EM uncovers inchworm-like translocation of a viral IRES through the ribosome” (eLife, 2016)

Biological target: T1, S. cerevisiae elongation factor eEF2 (C-terminally His6-tagged), bound with GDP and sordarin (S. cerevisiae, UniProt P32324 1-842, diphthamide at 699)
T1 construct: elongation factor 2 (eEF2), S. cerevisiae; residue numbers as in S. cerevisiae eEF2 (H108, H583, H694, Diph699); Complex assembled with eEF2•GTP and sordarin; also called eukaryotic elongation factor 2; translocase; source: yeast TKY675 cells, purified (Ni-NTA, SP Sepharose cation exchange, Superdex 200)
T1 sequence (P32324 whole entry): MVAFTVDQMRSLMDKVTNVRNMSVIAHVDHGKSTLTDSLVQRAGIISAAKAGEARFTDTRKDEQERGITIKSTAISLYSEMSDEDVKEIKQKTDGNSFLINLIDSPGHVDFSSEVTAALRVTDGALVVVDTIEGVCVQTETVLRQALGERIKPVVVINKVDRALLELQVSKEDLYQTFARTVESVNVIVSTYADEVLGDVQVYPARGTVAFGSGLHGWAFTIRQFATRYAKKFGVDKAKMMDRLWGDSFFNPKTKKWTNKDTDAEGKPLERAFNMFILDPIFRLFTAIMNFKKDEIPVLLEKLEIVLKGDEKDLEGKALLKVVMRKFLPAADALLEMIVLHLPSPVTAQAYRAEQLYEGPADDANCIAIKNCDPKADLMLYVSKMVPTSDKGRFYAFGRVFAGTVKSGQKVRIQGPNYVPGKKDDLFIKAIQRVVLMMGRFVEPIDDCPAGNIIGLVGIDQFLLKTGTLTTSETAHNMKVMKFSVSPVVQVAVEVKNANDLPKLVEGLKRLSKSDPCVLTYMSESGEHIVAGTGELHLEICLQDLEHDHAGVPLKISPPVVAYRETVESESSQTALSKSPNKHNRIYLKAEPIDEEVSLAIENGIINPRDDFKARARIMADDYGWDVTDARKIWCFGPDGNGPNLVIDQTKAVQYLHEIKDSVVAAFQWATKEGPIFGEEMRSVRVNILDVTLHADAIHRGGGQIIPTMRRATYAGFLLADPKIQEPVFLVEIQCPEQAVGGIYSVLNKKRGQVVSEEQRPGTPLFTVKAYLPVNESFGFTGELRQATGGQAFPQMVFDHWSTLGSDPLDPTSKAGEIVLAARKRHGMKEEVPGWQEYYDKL
Experiment: cryo-EM structure; 80S•TSV IRES•eEF2•GDP•sordarin complex, five structures (I-V) from one specimen; assembled from 40S (0.8 uM), 60S (0.8 uM), TSV IRES RNA (8 uM), eEF2 (5 uM), sordarin (800 uM), GTP (1 mM); 30°C; 45 mM HEPES·KOH pH 7.5, 10 mM MgCl2, 100 mM KCl, 2.5 mM spermine, 2 mM β-mercaptoethanol
Conditions: both partners purified

B1: ribosomal protein P0 of the S. cerevisiae 60S subunit (P stalk) (natural protein, UniProt P05317 1-312, looked up)
chain: MGGIREKKAEYFAKLREYLEEYKSLFVVGVDNVSSQQMHEVRKELRGRAVVLMGKNTMVRRAIRGFLSDLPDFEKLLPFVKGNVGFVFTNEPLTEIKNVIVSNRVAAPARAGAVAPEDIWVRAVNTGMEPGKTSFFQALGVPTKIARGTIEIVSDVKVVDAGNKVGQSEASLLNLLNISPFTFGLTVVQVYDNGQVFPSSILDITDEELVSHFVSAVSTIASISLAIGYPTLPSVGHTLINNYKDLLAVAIAASYHYPEIEDLVDRIENPEKYAAAAPAATSAASGDAAPAEEAAAEEEEESDDDMGFGLFD
notes: 60S acidic ribosomal protein P0 (uL10), S. cerevisiae; part of the P stalk of the 60S subunit; Stood in the assay as a subunit of the 60S ribosomal subunit within the 80S ribosome, not as an isolated protein; also called eukaryote-specific protein P0; source: endogenous, in 60S subunits from 80S ribosomes purified from S. cerevisiae strain W303
B1: binds.
